± gives the uncertainty stated by the source.
Assay: amyloid nucleation score (Sup35N fusion, yeast selection) (log enrichment); library NNK3; higher = more nucleation; inactive = no reads after selection
Method in brief: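 After 24 hours of induction with 100 μM copper sulfate, psi-negative yeast expressing peptides of 20 random codons fused to Sup35N were grown for 7 days at 30°C on medium lacking adenine and uracil. Input and output plasmid inserts were sequenced with Illumina, and sequences with under 100 input reads were discarded. Scores for nucleation are the DiMSum log enrichment of output over input reads, centred on the mode score of non-aggregating sequences.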

Amyloid nucleation score, 0.195 ± 0.34:
LASVLEYESWLSLFIWQSKH

Amyloid nucleation score, -0.021 ± 0.22:
KVVVMDCWWNNIYCTDQWVI

Amyloid nucleation score, -0.5 ± 0.9:
LCTSLLKF

Amyloid nucleation score, 1.27 ± 0.17:
LILGTNYQIY

Amyloid nucleation score, 0.523 ± 0.19:
LFMLGQLLTWDFHALSSGYV

Amyloid nucleation score, -0.121 ± 0.36:
KVFPFEVEVLFFHGGDMSCG

Amyloid nucleation score, 1.79 ± 0.075:
KRDIVFLCGDWVDSFTCSGG

Amyloid nucleation score, inactive:
KPQYENVMCY, KPRILFQCPIRKVLRVGVKF, KPRSC, KPSRNESLQMALLSYIYLFR, KQLDDPRQICIFYPT, KQVNWS, KRFMDLTHIESSRAKVYRVT, KRGLTGVSLVLDETVAVPSD, KRITLWCLCFRSYDHEMMV, KRNFGWSAIRVQFIDFCLKG, KRRMRGALRVRVNSTHCWYV, KRRSTRL, KRSSSAAIKKRIIVQIDGNR, KRVRVRFASAMHGLMSHPDT, KSCHQSRFISDYRPAAPEDS, KSDPPGTVLYYTLAQPLYLL, KSEFSRSHWESDD, KSIIYTILLVWFKYGVHSPL, KSRSYPCIEPNV, KSWYEFPKMLRNHRTYNQRL, KTMVYGIQANDGWLVHGGFL, KVLLWPSWFK, KVRNPWMRIDTVCRFFILVV, KVSNTRLVRTINMSCGISYP, KVTLRNRFISMPNFMIEP, KVVNGVRCKKSQGLI, KWFRHFHI, KWKFCSGYAELMLP, KWRDIIYCIYSIMIDSCTSR, KWTSCSYPH, KWVKPRVVTQKR, KYEVCSYFNLCGEGKYRTVV, KYFRNIYWHISRRIWAKAPG, KYGFAVRPFDTGSRMSHFCW, KYINFSLNS, KYKVDIMLRIARSTVFSDSF, KYVRVLHCIDLFRSSLSHIG, KYWLMVWRFNYCMTYNGGLE, LAEVMTVLLFDYVNHWGSAI, LAIFMDSENSYKRMHTVT, LAKDVFIC, LALFDRGTCRQSSVYSGEDS, LARLCCLSVSFSKLLIVFTI, LASRMMFSLTDAMTDADGSV, LASRRQMMWVVHRFLNGAVH, LAVFSNRRCFFLENQYHRRS, LAVYPTGTDRDFGF, LAVYSSINFSRNGGSLTWTI, LCCKIHSRTKMRRGSC, LCCRQVTFERDVVVRYRRRR, LCERIGVISGA, LCFFV, LCFRCASLTESIGL, LCGSKICFLDSYDVESLISR, LCGYGSGKTISG, LCICFRNLLFEWCSLAE, LCKIRECHCNLYHRVYMGWN, LCLVSLVIHHGYVLVT, LCNFKDSADNWVSVGGNVGE, LCPLMAY, LCPRFGEEWCC, LCQTVCRAPI, LCRSSMGPFGNLWEKQLYIW, LCSAIGWSSACIFVWSYYTR, LCVDVS, LCVFWCGIPDRVFCNNGWMV, LCWVNQVREMGRWNTGVQSG, LDCTHSTLFWWRRFVSAYSL, LDERCLLVGMAYMLVCY, LDLCSRL, LDLDSNIGFISVLPF, LDLDVDNVSSDGKTWMGLV, LDNTLDN, LEDRACVFNKLIVLQ, LENFRCPVEGAVQERFGANL, LENGVHVRRSIEF, LENRSFNMMMFV, LERHL, LESFAGQAQWGCGSYQSFCL, LFCIY, LFDIVSQITLWQGPTHAFFK, LFGARDVFFER, LFGCEQRYP, LFGCNERCFYFAF, LFGGCLSLDDIVTDRLMTCF, LFGNSNRSGCSSLRQIGCLC, LFGSF, LFGYSNSRRHMIGMQSY, LFIRQG, LFIWTDILTFLRS, LFLVA, LFMRCSYCSV, LFNPMKTVYWHNLAIWHYDV, LFRFS, LFRIRQCFFYFSIFLVFSIK, LFRVSWMLGNKIDISKSIYR, LFSHESLVTTGLVAVFSLAK, LFSSFTSPLRMRWLDRSYHF, LFVIINPQVTWLLFRMFESH, LFYCSNCGKGIIQLRVGLYP, LFYKREALMRGISSFKELSN, LFYLGIYDFDGNW, LGDAFWFEIH, LGFFSSSKLLVGGASASIVS, LGFHTYRNLGKMHI, LGHVCILVQGGSKVRPTYGS, LGHYAKPLSSVQQNRTNMGA, LGKKLDCGDSMRSVRPICRG, LGPREQDLINFNWVFQYLKH, LGSTKSPLSCVY, LGVCVWQCLGMSIVNALKRL, LGVMSAVRAIGGFEILIGCV, LGVWRGIGPWRWAKKRWRVA, LHCFIMLIKCDRVMIVTVQG, LHITVEIWTLWK, LHKALQYTKTLSESRRLCNR, LHLTDLYYGF, LHPLYRFSANSSKDLFTSRT, LHQSSTGLSC, LHRSCAIAA, LHSSNCCNEIVMRNRCWRKF, LHTPIMRNYR, LHVLDYDPDLRCFQMLYMCG, LHVSTRFA, LIARCKRAIAGGY, LIASGASIVFSRTESVRCNT, LICYLYAKMC, LIGNTSGMILHSTITDEAWL, LIGSGV, LIISCMQFLVYKKCGFSMRH, LILFPRKRHTGSM, LIPIW, LISMVYLNVRLCQ, LISTNKRHTAWRYCRGIPLE, LIYMLCYFRLLPTCGQVINR

Amyloid nucleation score, 0.033 ± 0.27:
LGNGSLVIG

Amyloid nucleation score, 1.94 ± 0.068:
LIIGCGIFSLNS

Amyloid nucleation score, 2.84 ± 0.056:
LCFNCGVFCFFFRVGETTNW

Amyloid nucleation score, 0.409 ± 0.15:
LCFWNGLTTIDYYSFMGLLS

Amyloid nucleation score, 2.16 ± 0.07:
KVIRNTFIACCSV

Amyloid nucleation score, 0.313 ± 0.78:
LDMKPRQARTFFLNHGVLPA

Amyloid nucleation score, 2.31 ± 0.068:
LFNNFYLVSFGWLDGG

Amyloid nucleation score, 2.06 ± 0.089:
LGGYFLFNIITVGSTGMRKH

Amyloid nucleation score, 0.131 ± 0.64:
LFRLACVTNMRSNLLSYRRC

Amyloid nucleation score, 0.852 ± 0.21:
LFTKRSYCCSCVVSGSEWAY

Amyloid nucleation score, -0.515 ± 0.75:
KTLTGQFGCSTTALCNDVEC

Amyloid nucleation score, 0.284 ± 0.46:
LFMCIAMM

Amyloid nucleation score, -0.443 ± 0.98:
LHRLMLTRCVPGFV

Amyloid nucleation score, -0.387 ± 0.88:
LAPRSMGIATSSHGSSNVIG

Amyloid nucleation score, 0.041 ± 1.2:
LGVRNDPQQSLPVQFGFELE

Amyloid nucleation score, 1.76 ± 0.076:
LCSVDVVLPVKYCVLPDH

Amyloid nucleation score, 0.87 ± 0.26:
LASIHCVHLMRTYVRVQPPM

Amyloid nucleation score, 2.17 ± 0.087:
KYCNFTGVFWQTNIFTVVPM

Amyloid nucleation score, 1.1 ± 0.15:
LCVFL

Source: the supplement of paper PMC12042874
